From patent publication US11535650 (RA PHARMACEUTICALS, dated 2022)
Starred links: 1 amine or outer side, 2 acyl side, 3 side chain; linkers in the order of their positions; H or OH if unused. Positions of bridges follow the written chain, without caps; N, C: chain ends. Non-standard residues stand in square brackets, D forms with d. Primed or numbered codes have the meaning given here. No end group written: not given here. Tyr(OMe) = O-methyl tyrosine, COc1ccc(C[C@H](N[*:1])C(=O)[*:2])cc1; mXylyl(5) = bridging moiety between the two residues (meta-xylyl); mXylyl = bridging moiety between residues (mXylyl(i,j)); Trp(5-F) = N[C@@H](Cc1c[nH]c2ccc(F)cc12)C(=O)O; Trp(7-aza) = N[C@@H](Cc1c[nH]c2ncccc12)C(=O)O; mXylyl(4) = bridging moiety between residues; NMePhe(4-F) = CN[C@@H](Cc1ccc(F)cc1)C(=O)O; PEG2000 = polyethylene glycol, 2000 Da; Phe(4-F) = N[C@@H](Cc1ccc(F)cc1)C(=O)O; Phg(2-OMe) = COc1ccccc1[C@H](N)C(=O)O; mXylylene = c1cc(C[*:1])cc(C[*:2])c1; oXylylene = c1ccc(C[*:2])c(C[*:1])c1; pXylylene = c1cc(C[*:2])ccc1C[*:1]; hPhe = N[C@@H](CCc1ccccc1)C(=O)O; dChg = N[C@@H](C(=O)O)C1CCCCC1; Chg = N[C@H](C(=O)O)C1CCCCC1; Phg = N[C@H](C(=O)O)c1ccccc1; Tle = CC(C)(C)[C@H](N)C(=O)O; NMeS = CN[C@@H](CO)C(=O)O; NMeA = CN[C@@H](C)C(=O)O; Nva = CCC[C@H](N)C(=O)O; Sar = CNCC(=O)O

B1: R3072 (peptide)
peptide: Ac-[Nva][Nva]YEN[Tle]Y[Trp(7-aza)]EYP[Chg][Nva]K-NH2
SMILES: CCC[C@H](NC(C)=O)C(=O)N[C@@H](CCC)C(=O)N[C@@H](Cc1ccc(O)cc1)C(=O)N[C@@H](CCC(=O)O)C(=O)N[C@@H](CC(N)=O)C(=O)N[C@H](C(=O)N[C@@H](Cc1ccc(O)cc1)C(=O)N[C@@H](Cc1c[nH]c2ncccc12)C(=O)N[C@@H](CCC(=O)O)C(=O)N[C@@H](Cc1ccc(O)cc1)C(=O)N1CCC[C@H]1C(=O)N[C@H](C(=O)N[C@@H](CCC)C(=O)N[C@@H](CCCCN)C(N)=O)C1CCCCC1)C(C)(C)C
B2: R3004 (peptide)
peptide: Ac-[Nva]CYNN[Tle]E[Trp(7-aza)]EYP[Phg][Tle]-NH2
SMILES: CCC[C@H](NC(C)=O)C(=O)N[C@@H](CS)C(=O)N[C@@H](Cc1ccc(O)cc1)C(=O)N[C@@H](CC(N)=O)C(=O)N[C@@H](CC(N)=O)C(=O)N[C@H](C(=O)N[C@@H](CCC(=O)O)C(=O)N[C@@H](Cc1c[nH]c2ncccc12)C(=O)N[C@@H](CCC(=O)O)C(=O)N[C@@H](Cc1ccc(O)cc1)C(=O)N1CCC[C@H]1C(=O)N[C@H](C(=O)N[C@H](C(N)=O)C(C)(C)C)c1ccccc1)C(C)(C)C
B3: R3077 (peptide)
peptide: Ac-[Nva][Nva]YEN[Tle]Y[Trp(7-aza)]EYP[Chg][Nva]K
modifications: not fully specified (residue 14, C-terminus); printed as Ac-Nvl-Nvl-Y-E-N-Tbg-Y-azaTrp-E-Y-P-Chg-Nvl-K-(PEG2000) NH2; also: PEG2000 at C-terminal Lys, attachment site unstated
B4: R3005 (peptide)
peptide: Ac-[Nva]CY[Trp(7-aza)][Sar][Tle][Nva][Trp(7-aza)]EYP[Phg]P-NH2
SMILES: CCC[C@H](NC(C)=O)C(=O)N[C@@H](CS)C(=O)N[C@@H](Cc1ccc(O)cc1)C(=O)N[C@@H](Cc1c[nH]c2ncccc12)C(=O)N(C)CC(=O)N[C@H](C(=O)N[C@@H](CCC)C(=O)N[C@@H](Cc1c[nH]c2ncccc12)C(=O)N[C@@H](CCC(=O)O)C(=O)N[C@@H](Cc1ccc(O)cc1)C(=O)N1CCC[C@H]1C(=O)N[C@H](C(=O)N1CCC[C@H]1C(N)=O)c1ccccc1)C(C)(C)C
B5: R3053 (peptide)
peptide: [Nva]CCN[Tle][Phg]C[Tle][NMeS]C[Tle]-NH2
modifications: linker (positions not given here) via mXylylene; also: mXylyl-bicyclo: Cys pairing not given here
B6: R3006 (peptide)
peptide: Ac-YEN[Tle]Y[Trp(7-aza)]EY[Sar][Nva][NMeS]-NH2
SMILES: CCC[C@H](NC(=O)CN(C)C(=O)[C@H](Cc1ccc(O)cc1)NC(=O)[C@H](CCC(=O)O)NC(=O)[C@H](Cc1c[nH]c2ncccc12)NC(=O)[C@H](Cc1ccc(O)cc1)NC(=O)[C@@H](NC(=O)[C@H](CC(N)=O)NC(=O)[C@H](CCC(=O)O)NC(=O)[C@H](Cc1ccc(O)cc1)NC(C)=O)C(C)(C)C)C(=O)N(C)[C@@H](CO)C(N)=O

target: human C5 protein (human, UniProt P01031 19-673; P01031 678-1676); assay: cell-based or functional assay

Binder	Avg. IC50, human hemolysis assay (complete human sera)
Ac-[Nva]CKE[Phg]YC[NMeS][Tle]K[Trp(7-aza)]EY-NH2 (linker 2-7 via mXylyl) [R3007]	314 nM
MCVERFCDV-NH2 (linker 2-7 via mXylyl(5)) [R3046]	> 100000 nM
Ac-[Nva]SYEC[Tle]Y[Trp(7-aza)]EYP[Chg]C[Nva]-NH2 (linker 5-13 via mXylyl(5)) [R3086]	> 50000 nM
Ac-[Chg]C[Phg]T[Trp(7-aza)]EY[NMeS]AC[Nva]-NH2 (linker 2-10 via mXylyl(4)) [R3089]	> 15000 nM
[Nva]CY[NMeS][Phg][NMePhe(4-F)][NMeS]H[NMePhe(4-F)][Sar]C-NH2 (linker 2-11 via mXylyl(5)) [R3051]	> 100000 nM
Ac-[Nva]C[Phg]TFEY[NMeS]AC[Nva]-NH2 (linker 2-10 via mXylyl(4)) [R3092]	> 50000 nM
Ac-[Nva]C[Phg]TWEY[NMeS]AC[Nva]-NH2 (linker 2-10 via mXylyl(4)) [R3091]	483 nM
Ac-[Nva]CFT[Trp(7-aza)]EY[NMeS]AC[Nva]-NH2 (linker 2-10 via mXylyl(4)) [R3090]	> 100000 nM
PEG2000-[Nva][Nva]YEN[Tle]Y[Trp(7-aza)]EYP[Phg][Nva]-NH2 [R3078]	568 nM
Ac-[Nva]C[Phg(2-OMe)]T[Trp(7-aza)]EY[NMeS]HC[Nva]-NH2 (linker 2-10 via mXylyl(5)) [R3087]	> 25000 nM
MCVERFCDVY-NH2 (linker 2-7 via mXylyl) [R3045]	> 100000 nM
B1	26.9 nM
[Nva]CY[Tle][Phg]N[Sar]LC[Phg][NMeA]-NH2 (linker 2-9 via mXylyl(5)) [R3052]	> 100000 nM
Ac-[Nva]C[Phg]T[Trp(7-aza)]EYSAC[Nva]-NH2 (linker 2-10 via mXylyl(5)) [R3084]	> 100000 nM
Ac-[Nva]C[Phg]T[Trp(7-aza)]EY[NMeS]HC[Nva]-NH2 (linker 2-10 via oXylylene) [R3049]	> 3100 nM
Ac-[Nva]C[Phg]T[Trp(7-aza)]EY[NMeS]HC[Nva]-NH2 (bridge 2-10) [R3042]	> 100000 nM
B2	53.5 nM
Ac-[Nva]C[Phg]T[Trp(5-F)]EY[NMeS]AC[Nva]-NH2 (linker 2-10 via mXylyl(5)) [R3088]	> 100000 nM

Binder	Avg. IC50, human hemolysis assay (complete human sera)
Ac-CVERFCDVYWEF-NH2 (linker 1-6 via mXylyl(5)) [R3048]	19.3 nM
Ac-[Nva]C[Phg]T[Trp(7-aza)]EYPHC[Nva]-NH2 (linker 2-10 via pXylylene) [R3065]	394 nM
Ac-[Nva]C[Chg]T[Trp(7-aza)]EY[NMeS]HC[Nva]-NH2 (linker 2-10 via pXylylene) [R3058]	> 10000 nM
B3	81.7 nM
MCVERFC-NH2 (linker 2-7 via mXylyl(5)) [R3047]	> 100000 nM
Ac-[Nva]C[Phg]T[Trp(7-aza)]E[Tyr(OMe)][NMeS]HC[Nva]-NH2 (linker 2-10 via mXylyl(5)) [R3074]	308 nM
Ac-[Nva]C[Phg]T[Trp(7-aza)]E[Phe(4-F)][NMeS]HC[Nva]-NH2 (linker 2-10 via mXylyl(5)) [R3073]	403 nM
B4	66.7 nM
[Nva]CY[NMeS][Phg][NMePhe(4-F)][NMeS]H[NMePhe(4-F)]GC-NH2 (linker 2-11 via mXylyl(5)) [R3075]	> 75000 nM
MCVERFCDVYW-NH2 (linker 2-7 via mXylyl) [R3044]	> 50000 nM
Ac-[Nva]C[Phg]T[Trp(7-aza)]E[hPhe][NMeS]AC[Nva]-NH2 (linker 2-10 via mXylyl(4)) [R3095]	> 50000 nM
Ac-[Nva]C[dChg]T[Trp(7-aza)]EY[NMeS]AC[Nva]-NH2 (linker 2-10 via mXylyl(4)) [R3093]	> 100000 nM
MCVERFCD[Tle]Y[Trp(7-aza)]EYP[Phg][Nva]-NH2 (linker 2-7 via mXylyl(5)) [R3057]	12.4 nM
Ac-VC[Phg]T[Trp(7-aza)]EY[NMeS]AC[Nva]-NH2 (linker 2-10 via mXylyl(5)) [R3083]	> 25000 nM
B5	> 100000 nM
Ac-[Nva]C[Phg]T[Trp(7-aza)]EY[NMeS]C[Nva]-NH2 (linker 2-9 via mXylyl(5)) [R3080]	> 50000 nM
B6	267 nM
